Measured values from the RNAGym collection of RNA variant scans (doi:10.1073/pnas.2313332121).

B1: TPR t1 (parent)
chain: GACCAAUCUGCCCUCAGAGCUCGAGAACAUCUUCGGAUGCAGAGGAGGCAGGCUUCGGUGGCGCGAUAGCGCCAACGUCCUCAACCUCCAAUGCAUCCCACCACAUGAUGAUGCCUGAAGAGCCUUGGUUUUUUG

Variants of: B1
Experiment: polymerase ribozyme fitness, log enrichment relative to wild type (log ratio); higher = more active; in vitro selection for triplet polymerase activity
Method in brief: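 In triplicate, a single round of in vitro selection was run on each mutant library, PCR-built and transcribed, covering one subunit of a heterodimeric triplet polymerase ribozyme. Frozen incubation at −7 °C followed annealing with a biotinylated primer, partner subunit and triplets, and extended constructs were then gel-excised, streptavidin-captured and taken through RT-PCR. Fitness is the logarithm of genotype enrichment over wild-type enrichment, from inverse-variance-weighted replicate averages of Illumina-sequenced inputs and outputs. […] only genotypes with ≥10 input reads and ≥1 read per output were kept.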

Variant | polymerase ribozyme fitness (log ratio)
A26U G52A | -4.18
A26U G52A U112A U131C | -2.99
A26U G57U | -4.04
A26U G60A C97U G110U | -5.7
A26U G61C | -3.63
A26U G69C | -4.28
A26U G71A | -3.13
A26U G117A | -5.38
A26U G120U | -3.12
A26U U32C C94A | -4.33
A26U U54C | -2.99
A26U U59A G63A | -5.57
A26U U78C | -2.92
A27C A41C U106C | -5.25
A27C A50C A84C G120A | -3.23
A27C A74C | -3.6
A27C A84G | -5
A27C A95U C114U | -4.15
A27C C28A A103U A105U U106G A111U G117U C123U | -5.3
A27C C31U A46C A84C C89A G110U U112A C123U U125A | -6.63
A27C C49U | -4.08
A27C C56A | -3.22
A27C C56A C76G | -3.81
A27C C56G | -3.34

Variant | polymerase ribozyme fitness (log ratio)
A27C C62A | -2.54
A27C C72A | -3.22
A27C C72A C79U G113U | -6.86
A27C C72G U112C G120C U126C U131A | -4.66
A27C C72U C124A | -1.07
A27C C76A | -5.92
A27C C82G G110U | -5.23
A27C C85U C123U | -3.3
A27C C124A | -0.901
A27C G47A U54G G57U | -1.6
A27C G47U C73U G77U C86G C123A U126A | -4.61
A27C G57U G69U C124G | 0.217
A27C G60A G110A | -6.05
A27C G61C | -5.63
A27C U54A C64A G113A | -5.44
A27C U54C | -2.56
A27C U55G G57C A111U G122A | -5.04
A27C U67G G107A U109A C123G C124G | -6.73
A27C U78A | -3.62
A27G A37U A121G | 0.646
A27G A41U | -2.67
A27G A41U G48A C88A | -5.84
A27G A46G C72U | -3.52
A27G A83G C86U | -2.33

Variant | polymerase ribozyme fitness (log ratio)
A27G A84C C99U | -5.83
A27G A105C | -3.41
A27G C28A G52U | -5.13
A27G C28U C56U U81A A83U A121C | -3.5
A27G C40U C49G C73U | -2.98
A27G C49A U96A | -3.34
A27G C49G | -2.37
A27G C49U | -2.19
A27G C49U C123A | -1.76
A27G C53G | -1.84
A27G C56A A74C U87A U112A | -0.205
A27G C56A C72U G120U | -2.12
A27G C56U U96A U109G C115G C124U | -7.02
A27G C64U | -2.01
A27G C64U C73U | -2.48
A27G C72U | -1.76
A27G C86U C94U | -1.98
A27G C88A | -2.13
A27G C89A U92A C98A A111C | -6.08
A27G C115U | -4.58
A27G G39U C73U G110C | -3.91
A27G G42A C73G | -5.22
A27G G42U A75G | -3.6
A27G G45C G63A C104A U131C | -6.14

Variant | polymerase ribozyme fitness (log ratio)
A27G G51A U78C | -3.93
A27G G51U G61A U92A | -6.49
A27G G135U | -2.21
A27G U38C C40G C49G G63U A95G U132A | -3.68
A27G U112A | 1.03
A27U A29G A83C | -2.59
A27U A29G G63C G127C | -6.04
A27U A37G G48A C72G A83U U130A | -4.93
A27U A46U | -4.77
A27U A50U | -4.65
A27U A68U A90C G93A C101G G110U | -7.92
A27U A90U | -5.37
A27U A118G | -3.19
A27U A119C G120A | -2.76
A27U C31G G69U C79G G120C U130G U132A | -6.29
A27U C40U C82A | -3.5
A27U C49G G51U C79G | -6.98
A27U C49G U54C | -3.58
A27U C49U A90G G93U | -3.23
A27U C53G A66G | -4.36
A27U C53U G77A | -3.79
A27U C56G A91G U131A U133G | -5.19
A27U C56U | -3.04
A27U C62U A74G | -7.73

Variant | polymerase ribozyme fitness (log ratio)
A27U C62U G117U C123G | -5.03
A27U C72U A83U G127A | -4.42
A27U C72U U87G | -3.11
A27U C72U U106G U129A G135U | -5.91
A27U C76U | -3.39
A27U C76U A95G U130G | -4.08
A27U C79G G127U | -4.93
A27U C85A C86A C101G | -5.15
A27U C88A | -4.4
A27U C94U U106A G110U | -2.09
A27U C97U U112A | -3.08
A27U C104U | -3.5
A27U C104U A111C G120C | -6.95
A27U G39C | -3.26
A27U G39U | -4.25
A27U G44A U129A | -6.51
A27U G44U C101G A111C | -7.22
A27U G47A U125G | -2.83
A27U G51A A74C A83C | -7.03
A27U G57C C89G G120A U131A | -4.12
A27U G60C C82G G120C G128U | -4.87
A27U G60U C82A U125G | -3.48
A27U G60U G61C | -5.43
A27U G60U G63A U109A C124U | -6.47

Variant | polymerase ribozyme fitness (log ratio)
A27U G61A C86U | -2.19
A27U G61U C102U U109G | -5.55
A27U G69U | -1.45
A27U G107A A121U G128U G135C | -3.88
A27U G117U C123G | -4.27
A27U U30A G61U C72U A84C C98G A111U | -8.22
A27U U55G C56A G61A C62G U112C G120U G128A U130C | -7.21
A27U U59C | -3.53
A27U U81C G120A G135A | -4.49
C28A A43U | -5.18
C28A A46U U54G C73U C82G A90G C123U | -4.12
C28A A119U | -4.75
C28A C64U C70A C99U G110U G120C U132A | -7.34
C28A C72A C123G U126C | -2
C28A C72U C123U | -3.7
C28A C76G G120A | -4.53
C28A C88G G120A | -3.89
C28A C89U U112A | -1.62
C28A G39U A83C C123U U133A | -4
C28A G42A G77C G110U | -1.22
C28A G44U U78G G113A | -4.24
C28A G48U C53U G57C G60A U106C | -5.56
C28A G61A | -4.06
C28A G61A G93A C123A | -3.78

Variant | polymerase ribozyme fitness (log ratio)
C28A G61U G120A | -3.5
C28A G63A | -5.86
C28A G71C | -5.69
C28A G93C G110A | -0.645
C28A G135U | -4.58
C28A U54A G61U G110U | 2.18
C28A U54C U106C | -5.05
C28A U78C A91U U106A G110U | 0.263
C28A U96A C97A G110A C124A | -3.05
C28G A83G U130C | -4.34
C28G C34G G42U A46G C56A C104A A111G U131G | -5.4
C28G C34G G110A G117U | -5.7
C28G C40U G57U G63C | -4.66
C28G C53U G93A | -5.35
C28G C53U U67G C73G C98A C102A A111U C114G | -6
C28G C56A | -1.87
C28G C56A C73G U106C | -4.85
C28G C62G | -4.58
C28G C62G C98U C124U | -5.55
C28G C73U C97U | -3.34
C28G C82G C86A | -3.55
C28G G42C G52C G69U G107A A108G C124G | -7.26
C28G G48U | -3.56
